Laboratory results taken from publication PMC10320017.

Biological target: SARS-CoV-1 S/native spike ectodomain (with C-terminal foldon and His tag) (SARS coronavirus Tor2 (SARS-CoV-1))
Assay: negative-stain EM

SARS-CoV-1 S/native spike ectodomain (with C-terminal foldon and His tag) (domain or fragment)
stoichiometry N: 3
